As a reminder, the stoichiometry N is a count of units in the complex or per binding partner.

The values below come from paper PMC5379939.

One test concerns the target EYFP-ELKS1(771–976). Nature of the test: FRET or BRET.
A further test concerns the target GST-ELKS1(771–976). Nature of the test: pull-down. The note with it: scale: GST-ELKS1(771–976) per MBP-bMunc13-2(1–305).

In the test with EYFP-ELKS1(771–976), “ECFP-bMunc13-2(70–204) (domain or fragment)” showed a fold of the FRET value of cells coexpressing soluble ECFP and EYFP of 7 fold; a normalized FRET value of 0.07. On to “MBP-bMunc13-2(1–305) (domain or fragment)”, for which the stoichiometry N in the test with GST-ELKS1(771–976) was found to be 1.69.
